Experimental data taken from the supplement of paper PMC10219994.
± gives the standard deviation of the averaged measurements.

B1: library; a variant is named by its letters at N, in order (parent)
chain: GAGACCGCAACTGAAAAGTTGTGGNNNNNATAGTGAGTCGCTGCCTGCAAAGACACAACT

Variants of: B1
Assay: ligation selection enrichment (abundance after / before one-round selection) (fold); higher = more template-directed ligation activity
Settings: with T7Psub CACGGAUGCUAAUACGACUCACUAUA; MgCl2 25 mM; 42 °C; 4 h; pH 8.5
Method in brief: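 Two independent reactions combined a T7-transcribed RNA ligase library with five randomized core positions (0.75 μM) and RNA substrate (6 μM) in 50 mM EPPS pH 8.5, 25 mM MgCl2, run for 4 h at 42 °C. The ligated products were sequenced on a MiSeq, and only reads with quality ≥30 at all randomized positions were counted. Enrichment is the abundance after ligation divided by the abundance before ligation.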
Work on TCTGC yielded a ligation selection enrichment of 0.143 ± 0.0073. Work on AGTTC yielded a ligation selection enrichment of 0.176 ± 0.014. AGTTT gave a ligation selection enrichment of 0.427 ± 0.11. Variant AGTTG has a ligation selection enrichment of 3.78 ± 0.71. Variant AGTTA has a ligation selection enrichment of 0.434 ± 0.065. With GGCGC the ligation selection enrichment was 0.2927 ± 0.0028. In the case of GGCGT, the ligation selection enrichment is reported as 0.168 ± 0.023. GGCGG gave a ligation selection enrichment of 0.252 ± 0.022. Variant GGCGA has a ligation selection enrichment of 1.52 ± 0.26. TCTCC was tested, and the ligation selection enrichment was 0.267 ± 0.12. TCTCG was tested, and the ligation selection enrichment was 0.368 ± 0.12. GGCCA showed a ligation selection enrichment of 0.241 ± 0.083. For GGCCG, the ligation selection enrichment was 0.746 ± 0.042. Work on GGCCC yielded a ligation selection enrichment of 0.192 ± 0.0055. Work on GGCCT yielded a ligation selection enrichment of 0.408 ± 0.092. AGTGA was tested, and the ligation selection enrichment was 0.842 ± 0.093. In the case of AGTGG, the ligation selection enrichment is reported as 0.414 ± 0.077. AGTGC was tested, and the ligation selection enrichment was 0.186 ± 0.0091. AGTGT gave a ligation selection enrichment of 0.133 ± 0.035. Work on ACTAG yielded a ligation selection enrichment of 0.403 ± 0.037. ACTAT gave a ligation selection enrichment of 0.119 ± 0.05. With ACTAA the ligation selection enrichment was 0.168 ± 0.031. In the case of ACTAC, the ligation selection enrichment is reported as 0.128 ± 0.011. TGGTG gave a ligation selection enrichment of 0.288 ± 0.042. With TGGTT the ligation selection enrichment was 0.438 ± 0.044. In the case of TGGTC, the ligation selection enrichment is reported as 0.198 ± 0.019. Work on TGGTA yielded a ligation selection enrichment of 0.325 ± 0.017. Variant AGCGA has a ligation selection enrichment of 2.74 ± 0.25. With AGCGG the ligation selection enrichment was 0.213 ± 0.012. In the case of AGCGC, the ligation selection enrichment is reported as 0.269 ± 0.043. Work on AGCGT yielded a ligation selection enrichment of 0.191 ± 0.054. Variant AGTAC has a ligation selection enrichment of 0.492 ± 0.1. With AGTAA the ligation selection enrichment was 0.427 ± 0.042. Work on AGTAT yielded a ligation selection enrichment of 6.55 ± 1.2. AGTAG showed a ligation selection enrichment of 1.697 ± 0.012. For TGTAT, the ligation selection enrichment was 1.97 ± 0.21. TGTAG was tested, and the ligation selection enrichment was 0.307 ± 0.076. With TGTAA the ligation selection enrichment was 0.267 ± 0.021. TGTAC showed a ligation selection enrichment of 0.277 ± 0.037. For AGAGT, the ligation selection enrichment was 0.253 ± 0.024. AGAGC gave a ligation selection enrichment of 0.196 ± 0.028. Work on AGAGA yielded a ligation selection enrichment of 0.338 ± 0.038. AGAGG was tested, and the ligation selection enrichment was 0.288 ± 0.045. With TCTTG the ligation selection enrichment was 0.678 ± 0.067. For TCTTT, the ligation selection enrichment was 0.193 ± 0.18. TCTTA showed a ligation selection enrichment of 0.122 ± 0.024. For TCTTC, the ligation selection enrichment was 0.0955 ± 0.034. Variant CCTGA has a ligation selection enrichment of 0.26 ± 0.038. CCTGG was tested, and the ligation selection enrichment was 0.381 ± 0.061. Variant CCTGC has a ligation selection enrichment of 0.128 ± 0.01. Variant CCTGT has a ligation selection enrichment of 0.138 ± 0.07. Work on TGTGC yielded a ligation selection enrichment of 0.151 ± 0.015. TGTGA gave a ligation selection enrichment of 0.629 ± 0.018. TGTGG showed a ligation selection enrichment of 0.196 ± 0.025. In the case of TGTGT, the ligation selection enrichment is reported as 0.102 ± 0.061. Variant GGATA has a ligation selection enrichment of 0.432 ± 0.027. GGATG showed a ligation selection enrichment of 0.732 ± 0.14. GGATC showed a ligation selection enrichment of 0.188 ± 0.03. GGATT was tested, and the ligation selection enrichment was 1.31 ± 0.31. AGACC gave a ligation selection enrichment of 0.172 ± 0.011. Variant AGACA has a ligation selection enrichment of 0.206 ± 0.011. Variant AGACG has a ligation selection enrichment of 0.532 ± 0.039. AGACT gave a ligation selection enrichment of 0.736 ± 0.21. For TCTAG, the ligation selection enrichment was 0.285 ± 0.051. Work on TCTAT yielded a ligation selection enrichment of 0.102 ± 0.035. For TCTAC, the ligation selection enrichment was 0.152 ± 0.03. TCTAA gave a ligation selection enrichment of 0.0912 ± 0.0077. CCTCA showed a ligation selection enrichment of 0.348 ± 0.055. For CCTCT, the ligation selection enrichment was 0.266 ± 0.11. In the case of CCTCC, the ligation selection enrichment is reported as 0.347 ± 0.0045. With CCTCG the ligation selection enrichment was 0.55 ± 0.064. CGGGA showed a ligation selection enrichment of 0.229 ± 0.025. CGGGC gave a ligation selection enrichment of 0.0737 ± 0.008. Variant CGGGG has a ligation selection enrichment of 0.165 ± 0.043. Work on CGGGT yielded a ligation selection enrichment of 0.147 ± 0.034. CGCGG gave a ligation selection enrichment of 0.533 ± 0.12. CGCGT was tested, and the ligation selection enrichment was 0.237 ± 0.0082. For CGCGC, the ligation selection enrichment was 0.223 ± 0.025. CGCGA was tested, and the ligation selection enrichment was 1.1 ± 0.18. For AGCTC, the ligation selection enrichment was 0.104 ± 0.0069. With AGCTG the ligation selection enrichment was 0.198 ± 0.0052. With AGCTT the ligation selection enrichment was 0.149 ± 0.13. For AGCTA, the ligation selection enrichment was 0.209 ± 0.011. CGTAT gave a ligation selection enrichment of 4.81 ± 0.52. CGTAC was tested, and the ligation selection enrichment was 0.447 ± 0.0085. CGTAG was tested, and the ligation selection enrichment was 0.612 ± 0.083. Work on CGTAA yielded a ligation selection enrichment of 0.311 ± 0.023. Variant CGTCT has a ligation selection enrichment of 0.522 ± 0.15. With CGTCG the ligation selection enrichment was 2.71 ± 0.46. With CGTCA the ligation selection enrichment was 0.569 ± 0.038. Work on CGTCC yielded a ligation selection enrichment of 0.192 ± 0.059. Variant GCTCC has a ligation selection enrichment of 0.301 ± 0.0054. GCTCA gave a ligation selection enrichment of 0.244 ± 0.1. GCTCT gave a ligation selection enrichment of 0.165 ± 0.064. Work on GCTCG yielded a ligation selection enrichment of 0.533 ± 0.037. TCGTG was tested, and the ligation selection enrichment was 0.173 ± 0.047. For TCGTT, the ligation selection enrichment was 0.205 ± 0.12. In the case of TCGTC, the ligation selection enrichment is reported as 0.202 ± 0.02. For CCGTA, the ligation selection enrichment was 0.213 ± 0.013. CCGTG showed a ligation selection enrichment of 0.111 ± 0.0037. Variant CCGTT has a ligation selection enrichment of 0.149 ± 0.04. CCGTC gave a ligation selection enrichment of 0.178 ± 0.022. Variant TGCCT has a ligation selection enrichment of 0.408 ± 0.18. In the case of TGCCG, the ligation selection enrichment is reported as 0.559 ± 0.02. For TGCCC, the ligation selection enrichment was 0.1927 ± 0.0019. For TGCCA, the ligation selection enrichment was 0.144 ± 0.028. With AGGGC the ligation selection enrichment was 0.109 ± 0.0024. AGGGG was tested, and the ligation selection enrichment was 0.251 ± 0.027. Variant AGGGA has a ligation selection enrichment of 0.322 ± 0.059. Variant AGGGT has a ligation selection enrichment of 0.289 ± 0.097. CGACC was tested, and the ligation selection enrichment was 0.239 ± 0.071. CGACG showed a ligation selection enrichment of 0.671 ± 0.15. Work on CGACT yielded a ligation selection enrichment of 1.09 ± 0.25. CGACA showed a ligation selection enrichment of 0.411 ± 0.093. GTAAA gave a ligation selection enrichment of 0.321 ± 0.067. With TGGAA the ligation selection enrichment was 5.31 ± 0.71. TGGAT showed a ligation selection enrichment of 233 ± 62. TGGAC showed a ligation selection enrichment of 24.7 ± 2.8. In the case of TGGAG, the ligation selection enrichment is reported as 1.119 ± 0.0088. Variant GGTTT has a ligation selection enrichment of 0.452 ± 0.082. GGTTC gave a ligation selection enrichment of 0.216 ± 0.015. For GGTTA, the ligation selection enrichment was 0.477 ± 0.095. GGTTG gave a ligation selection enrichment of 3.91 ± 0.67. TGAGT was tested, and the ligation selection enrichment was 0.221 ± 0.024. TGAGA was tested, and the ligation selection enrichment was 0.376 ± 0.039. TGAGC was tested, and the ligation selection enrichment was 0.156 ± 0.035. TGAGG showed a ligation selection enrichment of 0.319 ± 0.074. TGTTT showed a ligation selection enrichment of 0.468 ± 0.2. TGTTG gave a ligation selection enrichment of 1.1 ± 0.08. TGTTC gave a ligation selection enrichment of 0.147 ± 0.071. TGTTA was tested, and the ligation selection enrichment was 0.2185 ± 0.00099. CGATA showed a ligation selection enrichment of 1.05 ± 0.21. CGATC was tested, and the ligation selection enrichment was 0.294 ± 0.018. CGATT gave a ligation selection enrichment of 4.38 ± 0.59. In the case of CGATG, the ligation selection enrichment is reported as 1.3 ± 0.22. CGTTA was tested, and the ligation selection enrichment was 0.263 ± 0.01. With CGTTC the ligation selection enrichment was 0.124 ± 0.0021. With CGTTT the ligation selection enrichment was 0.379 ± 0.0055. CGTTG showed a ligation selection enrichment of 2.11 ± 0.56. AGAAC showed a ligation selection enrichment of 0.267 ± 0.06. Variant AGAAT has a ligation selection enrichment of 3.78 ± 0.51. AGAAA gave a ligation selection enrichment of 0.306 ± 0.043. AGAAG showed a ligation selection enrichment of 0.4 ± 0.033. GGGTT was tested, and the ligation selection enrichment was 0.318 ± 0.011. For GGGTA, the ligation selection enrichment was 0.445 ± 0.024. Work on GGGTG yielded a ligation selection enrichment of 0.317 ± 0.033. GGGTC showed a ligation selection enrichment of 0.201 ± 0.006. TGCGA showed a ligation selection enrichment of 2.41 ± 0.15. In the case of TGCGG, the ligation selection enrichment is reported as 0.221 ± 0.0095. TGCGT was tested, and the ligation selection enrichment was 0.168 ± 0.021. TGCGC was tested, and the ligation selection enrichment was 0.217 ± 0.02. In the case of AGGCC, the ligation selection enrichment is reported as 0.21 ± 0.013. In the case of AGGCG, the ligation selection enrichment is reported as 0.527 ± 0.12. With AGGCT the ligation selection enrichment was 0.587 ± 0.3. AGGCA showed a ligation selection enrichment of 0.255 ± 0.066. In the case of GCTTC, the ligation selection enrichment is reported as 0.176 ± 0.038. GCTTT was tested, and the ligation selection enrichment was 0.4952 ± 0.0042. Variant GCTTG has a ligation selection enrichment of 0.955 ± 0.16. Work on GCTTA yielded a ligation selection enrichment of 0.21 ± 0.0056. With AGATC the ligation selection enrichment was 0.204 ± 0.0068. With AGATT the ligation selection enrichment was 1.66 ± 0.48. AGATG gave a ligation selection enrichment of 0.602 ± 0.065. AGATA was tested, and the ligation selection enrichment was 0.533 ± 0.16. Work on CGGTG yielded a ligation selection enrichment of 0.24 ± 0.069. CGGTC showed a ligation selection enrichment of 0.1 ± 0.011. For CGGTA, the ligation selection enrichment was 0.133 ± 0.028. CGGTT was tested, and the ligation selection enrichment was 0.202 ± 0.042.
